Measurements taken from US20210371529A1 (Innovent, published 2021).
Where a chain is given by its changes, count along the chain named.

T1: human LAG-3 overexpressed on HEK293 cells (human, UniProt P18627 23-525)
T1 construct: whole, on cells; also called 293-hLAG-3 cells; hLAG-3 on the cell surface
T1 sequence (looked up): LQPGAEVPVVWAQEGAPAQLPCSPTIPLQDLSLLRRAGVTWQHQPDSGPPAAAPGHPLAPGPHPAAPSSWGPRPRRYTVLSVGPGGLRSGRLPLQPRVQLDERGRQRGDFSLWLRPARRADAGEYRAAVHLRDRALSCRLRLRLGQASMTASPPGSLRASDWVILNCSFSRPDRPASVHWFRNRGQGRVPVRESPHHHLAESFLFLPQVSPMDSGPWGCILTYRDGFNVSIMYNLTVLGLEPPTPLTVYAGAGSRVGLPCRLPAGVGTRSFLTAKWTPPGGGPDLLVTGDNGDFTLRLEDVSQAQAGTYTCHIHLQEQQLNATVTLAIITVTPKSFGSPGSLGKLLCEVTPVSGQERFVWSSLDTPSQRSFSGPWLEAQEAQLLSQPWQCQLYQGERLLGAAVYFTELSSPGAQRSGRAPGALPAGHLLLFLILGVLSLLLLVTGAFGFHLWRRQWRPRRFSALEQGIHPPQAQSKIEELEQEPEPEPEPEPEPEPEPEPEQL

T2: rhLAG3 protein (huFc) (human, UniProt P18627 23-450, limits assumed)
T2 construct: Bought Fc fusion; also called antigen rhLAG3 protein (huFc) (Sino Biological); human LAG-3; not shown: human Fc
T2 sequence (looked up): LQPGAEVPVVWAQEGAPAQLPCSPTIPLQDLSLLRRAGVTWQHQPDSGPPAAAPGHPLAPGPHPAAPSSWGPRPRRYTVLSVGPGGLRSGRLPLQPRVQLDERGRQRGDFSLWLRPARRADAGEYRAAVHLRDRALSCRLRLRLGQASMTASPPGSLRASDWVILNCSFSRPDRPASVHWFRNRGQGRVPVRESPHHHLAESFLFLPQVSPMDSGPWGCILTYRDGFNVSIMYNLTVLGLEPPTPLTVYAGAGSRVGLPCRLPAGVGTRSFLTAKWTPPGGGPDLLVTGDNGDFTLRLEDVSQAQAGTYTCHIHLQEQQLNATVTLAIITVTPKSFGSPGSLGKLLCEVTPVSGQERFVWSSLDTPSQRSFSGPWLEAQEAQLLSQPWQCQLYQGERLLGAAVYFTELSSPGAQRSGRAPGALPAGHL

T3: LAG-3 on activated human CD4+ T cells (human, UniProt P18627 23-525)
T3 construct: whole, on cells; also called endogenous LAG-3
T3 sequence (looked up): T1 sequence (looked up)

B1: ADI-31851 (antibody, human IgG4 S228P, kappa, F234A L235A, V domains shown)
VH: QLQLQESGPGLVKPSETLSLTCTVSGGSISSPDYYWGWIRQPPGKGLEWIGSIVYSGYTYYNPSLKSRVTISVDTSKNQFSLKLSSVTAADTAVYYCARVRTWDQSFDIWGQGTMVTVSS
VL: DIQMTQSPSSLSASVGDRVTITCQAGQDISNYLNWYQQKPGKAPKLLIYDASNLETGVPSRFSGSGSGTDFTFTISSLQPEDIATYYCQQVLELPPWTFGGGTKVEIKR
notes: IgG4 heavy chain constant region with kappa light chain; expressed in HEK293 cells
B2: ADI-31853 (antibody, human IgG4 S228P, kappa, F234A L235A, V domains shown)
VH: B1 VH with S30Y, P32E, D33S, Q105A, S106A
VL: B1 VL with G26S
notes: as for B1

Legend:
[1] = target: T1, human LAG-3 overexpressed on HEK293 …; assay: flow cytometry on 293-hLAG-3 cells, MFI curve
Method: The binding of the 4 exemplary antibodies of the invention described above to human LAG-3 was measured in a flow cytometry-based assay. 293 cells (293-hLAG-3 cells) over-expressing human LAG-3 were generated by transfecting human embryonic kidney 293 cells (Invitrogen) with pCHO1.0 vectors (Invitrogen) carrying human LAG-3 cDNA (Sino Biological) cloned into multiple cloning sites (MCSs). 293-hLAG-3 cells (0.2×10⁶ cells) were mixed with different concentrations of antibodies (ADI-26789, ADI-26869 and reference 25F7) prepared as described above (the antibodies were serially three-fold diluted from a maximum concentration of 500 nM in PBS containing 0.1% bovine serum albumin (BSA) until the 8th concentration). The cells were incubated on ice for 30 min. The cells were then washed at least twice prior to addition of a secondary antibody (a PE-labeled goat anti-human IgG antibody, Southern Biotech, final concentration […]) diluted in 1:100, and incubated on ice (protected from light) for 30 minutes. The cells were washed at least twice and analyzed by flow cytometry. The flow cytometry assay was performed on an Accuri C6 system (BD Biosciences), and a concentration-dependent curve was fitted with GraphPad according to the mean fluorescence intensity (MFI).

rhLAG3 protein (huFc) = target: T2, rhLAG3 protein (huFc); assay: flow cytometry, blocking of rhLAG3 (huFc) 20 nM binding to HLA-DR on CHO-DR cells
Method: Antigen rhLAG3 protein (huFc) (Sino Biological) was diluted to 40 nM, 50 μL/well. […] 50 μL of the diluted antibodies was added to each well, and incubated in PBS on ice for 30 min. The final antigen concentration was 20 nM and the maximum antibody concentration was 40 nM. The CHO-DR cells were adjusted to 3×10⁵ cells/well, 100 μL/well. The cells were centrifuged at 300 g for 5 min. The supernatant was discarded. Then the cells were resuspended in an antigen-antibody mixture. The mixture was incubated on ice for 30 min. PBS was added, 100 μL/well. After centrifugation at 300 g for 5 min, the mixture was washed with PBS once. 100 μL of goat anti-human IgG-PE (Southern Biotech) diluted in 1:100 was added to each well. After a 20-min ice bath, PBS was added, 100 μL/well. The mixture was centrifuged at 300 g for 5 min, prior to one wash with PBS. The cells were resuspended with 100 μL of PBS. The cell fluorescence signal values were measured by flow cytometry (BD Biosciences).

[2] = target: T3, LAG-3 on activated human CD4+ T cells; assay: flow cytometry on activated human CD4+ T cells, MFI curve
Method: CD4+ T cell isolation: This was performed according to the ‘Untouched CD4+ T cell isolation’ kit instructions (11346D, Invitrogen). PBMCs were left for 2 h before the cell suspension was pipetted into a 15-mL centrifugation tube. The cells were centrifuged at 200 g for 10 min, and the precipitate was resuspended with 500 μL of a separating medium, 100 μL of AB type serum and 100 μL of purified antibody. The mixture was incubated for 20 min at 4° C., and washed once with the separating medium. 500 μL of a Bead Buffer (Invitrogen) was added for an incubation of 15 min, and the beads were then removed by a magnetic field. The mixture was washed once with a T cell culture medium, and resuspended with 8 mL of a culture medium. The resulting mixture was then incubated at 37° C. in presence of 6% CO₂.
According to the ratio of magnetic beads to CD4⁺ T cells equivalent to 1:1, anti-CD3/CD28 magnetic beads (Gibco) were added to CD4⁺ T cells for stimulation for 3 days. The cell density was adjusted to 1×10⁶/mL. The cells were loaded into a first well, 150 μL/well, and into other wells, 100 μL/well. […] The samples were mixed well. […] The mixture was resuspended in 60 μL of PBS and analyzed by flow cytometry. The flow cytometry was performed on an Accuri C6 system (BD Biosciences), and a concentration-dependent curve was fitted with GraphPad according to the mean fluorescence intensity (MFI).

Row | Binder | EC50 [1] [pM] | IC50 (rhLAG3 protein (huFc)) [pM] | EC50 [2] [pM]
1 | B1 | 501 | 5850 | 13
2 | B2 | 433 | 4530 | 11
